Data as given in PMC9482650, “Quantitative fragmentomics allow affinity mapping of interactomes” (Nature Communications, 2022).

How the values were obtained:
Assay in all cases: holdup assay
Parameters in all cases: key: below the threshold = too weak to quantify, mostly under pKd 3.1 to 4
[1] = biological target: T1, ARHGAP21, Q5T5U3
T1 sequence (Q5T5U3 45-169, limits assumed, looked up): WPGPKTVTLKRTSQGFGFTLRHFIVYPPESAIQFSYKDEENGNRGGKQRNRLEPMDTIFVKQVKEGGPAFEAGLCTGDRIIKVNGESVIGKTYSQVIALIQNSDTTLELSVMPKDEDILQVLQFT

[2] = biological target: T2, DFNB31_1, Q9P202
T2 sequence (Q9P202 135-233, limits assumed, looked up): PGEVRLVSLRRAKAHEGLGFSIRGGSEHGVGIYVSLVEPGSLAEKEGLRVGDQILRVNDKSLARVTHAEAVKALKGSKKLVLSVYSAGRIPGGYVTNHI

[3] = biological target: T3, DLG3_1, Q92796
T3 sequence (Q92796 125-227, limits assumed, looked up): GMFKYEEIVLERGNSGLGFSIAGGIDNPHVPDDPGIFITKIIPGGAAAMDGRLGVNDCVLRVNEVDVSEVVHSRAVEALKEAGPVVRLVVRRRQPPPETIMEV

[4] = biological target: T4, DLG3_3, Q92796
T4 sequence (Q92796 374-475, limits assumed, looked up): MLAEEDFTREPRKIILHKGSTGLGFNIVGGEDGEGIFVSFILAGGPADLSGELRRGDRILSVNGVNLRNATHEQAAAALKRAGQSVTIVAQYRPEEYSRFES

[5] = biological target: DLG4_1, P78352
Sequence of DLG4_1, P78352 (P78352 62-152): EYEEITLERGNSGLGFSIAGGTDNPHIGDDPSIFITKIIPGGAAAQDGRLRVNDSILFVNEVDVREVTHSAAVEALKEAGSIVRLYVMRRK

[6] = biological target: FRMPD2_1, Q68DX3
Sequence of FRMPD2_1, Q68DX3 (Q68DX3 770-861): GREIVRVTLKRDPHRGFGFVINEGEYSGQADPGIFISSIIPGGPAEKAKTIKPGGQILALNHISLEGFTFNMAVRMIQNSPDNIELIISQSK

[7] = biological target: GORASP2, Q9H8Y8
[8] = biological target: GRID2IP_1, A4D2P6
Sequence of GRID2IP_1, A4D2P6 (A4D2P6 1-87): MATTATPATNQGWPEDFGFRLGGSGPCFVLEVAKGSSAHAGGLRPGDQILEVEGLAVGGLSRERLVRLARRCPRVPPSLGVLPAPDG

[9] = biological target: GRID2IP_2, A4D2P6
Sequence of GRID2IP_2, A4D2P6 (A4D2P6 272-370): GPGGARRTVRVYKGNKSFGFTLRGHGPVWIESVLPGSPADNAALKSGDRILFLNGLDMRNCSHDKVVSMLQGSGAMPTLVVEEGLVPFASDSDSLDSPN

[10] = biological target: T5, GRIP1_2, Q9Y3R0
T5 sequence (Q9Y3R0 145-248, limits assumed, looked up): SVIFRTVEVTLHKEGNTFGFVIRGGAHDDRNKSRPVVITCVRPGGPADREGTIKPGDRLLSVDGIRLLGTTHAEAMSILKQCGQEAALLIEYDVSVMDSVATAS

[11] = biological target: T6, GRIP1_5, Q9Y3R0
T6 sequence (Q9Y3R0 568-668, limits assumed, looked up): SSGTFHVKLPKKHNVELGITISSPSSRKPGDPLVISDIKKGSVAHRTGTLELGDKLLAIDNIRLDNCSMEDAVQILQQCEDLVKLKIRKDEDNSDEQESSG

[12] = biological target: T7, GRIP1_7, Q9Y3R0
T7 sequence (Q9Y3R0 999-1096, limits assumed, looked up): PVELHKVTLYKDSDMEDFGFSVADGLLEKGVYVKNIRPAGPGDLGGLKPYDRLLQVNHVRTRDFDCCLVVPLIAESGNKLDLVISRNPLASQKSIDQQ

[13] = biological target: HTRA1, Q92743
Sequence of HTRA1, Q92743 (Q92743 360-477): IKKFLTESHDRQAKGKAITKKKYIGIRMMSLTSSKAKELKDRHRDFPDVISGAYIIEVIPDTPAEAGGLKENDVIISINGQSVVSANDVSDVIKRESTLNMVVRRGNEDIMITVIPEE

[14] = biological target: IL16_3, Q14005
Sequence of IL16_3, Q14005 (Q14005 1107-1207): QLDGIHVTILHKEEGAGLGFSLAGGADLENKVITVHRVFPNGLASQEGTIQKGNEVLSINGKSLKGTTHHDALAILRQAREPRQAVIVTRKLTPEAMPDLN

[15] = biological target: Inadl_5, Q8NI35
Sequence of Inadl_5, Q8NI35 (Q8NI35 673-780): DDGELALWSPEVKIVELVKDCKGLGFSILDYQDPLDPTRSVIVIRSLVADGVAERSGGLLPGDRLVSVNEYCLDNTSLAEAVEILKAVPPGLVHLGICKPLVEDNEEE

[16] = biological target: LDB3, O75112
Sequence of LDB3, O75112 (O75112 1-94): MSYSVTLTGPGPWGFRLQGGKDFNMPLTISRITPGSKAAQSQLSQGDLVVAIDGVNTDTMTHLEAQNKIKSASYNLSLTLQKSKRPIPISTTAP

[17] = biological target: LIMK2, P53671
Sequence of LIMK2, P53671 (P53671 143-248): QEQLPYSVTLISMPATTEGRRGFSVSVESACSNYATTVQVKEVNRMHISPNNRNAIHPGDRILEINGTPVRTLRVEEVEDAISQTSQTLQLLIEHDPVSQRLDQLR

[18] = biological target: T8, LNX2_3, Q8N448
T8 sequence (Q8N448 463-564, limits assumed, looked up): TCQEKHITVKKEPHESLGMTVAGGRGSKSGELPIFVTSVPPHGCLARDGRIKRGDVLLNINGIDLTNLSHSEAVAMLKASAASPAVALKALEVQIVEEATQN

[19] = biological target: T9, MPDZ_12, O75970
T9 sequence (O75970 1857-1958, limits assumed, looked up): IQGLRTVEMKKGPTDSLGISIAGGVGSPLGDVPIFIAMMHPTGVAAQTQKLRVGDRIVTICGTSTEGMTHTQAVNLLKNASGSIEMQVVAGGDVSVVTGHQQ

[20] = biological target: NHERF4_1, Q86UT5-2
Sequence of NHERF4_1, Q86UT5-2 (Q86UT5 other isoform, or with tags, fused parts or gaps): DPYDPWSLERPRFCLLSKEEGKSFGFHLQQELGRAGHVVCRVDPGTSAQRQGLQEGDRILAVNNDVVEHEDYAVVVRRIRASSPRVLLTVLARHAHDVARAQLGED

[21] = biological target: T10, PARD3B_1, Q8TEW8
T10 sequence (Q8TEW8 196-299, limits assumed, looked up): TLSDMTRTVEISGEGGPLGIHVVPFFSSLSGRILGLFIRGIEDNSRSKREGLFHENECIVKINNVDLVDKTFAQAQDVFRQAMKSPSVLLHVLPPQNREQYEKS

[22] = biological target: PTPN3, P26045
Sequence of PTPN3, P26045 (P26045 505-587): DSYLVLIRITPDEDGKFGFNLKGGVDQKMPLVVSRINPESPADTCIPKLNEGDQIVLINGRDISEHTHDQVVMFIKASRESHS

[23] = biological target: T11, RHPN1, Q8TCX5
T11 sequence (Q8TCX5 508-602, limits assumed, looked up): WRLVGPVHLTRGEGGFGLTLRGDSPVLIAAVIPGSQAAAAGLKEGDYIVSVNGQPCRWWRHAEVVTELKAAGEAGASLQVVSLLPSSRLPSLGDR

[24] = biological target: SNX27, Q96L92
[25] = biological target: T12, TJP3_3, O95049
T12 sequence (O95049 375-456, limits assumed, looked up): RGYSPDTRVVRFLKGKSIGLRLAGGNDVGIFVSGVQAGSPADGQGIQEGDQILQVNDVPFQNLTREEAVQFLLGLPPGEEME

[26] = plain residues with an end cap or a label only (N-terminal biotin on a linker: ahx)
[27] = plain residues with an end cap or a label only (N-terminal biotin on a linker: ttds)
[28] = plain residues with an end cap or a label only (N-terminal biotin on a linker: ado-ado)

VNENQKEYFF [CNTNAP4, Q9C0A0]
pKd [1, 26]: 3.91 | pKd [2, 26]: below the threshold | pKd [3, 26]: below the threshold | pKd [4, 26]: below the threshold | pKd [5, 26]: below the threshold | pKd [6, 26]: below the threshold | pKd [7, 26]: below the threshold | pKd [8, 26]: below the threshold | pKd [9, 26]: below the threshold | pKd [10, 26]: below the threshold | pKd [11, 26]: below the threshold | pKd [12, 26]: 4.14 | pKd [13, 26]: 4.72 | pKd [14, 26]: below the threshold | pKd [15, 26]: 3.61 | pKd [16, 26]: below the threshold | pKd [17, 26]: below the threshold | pKd [18, 26]: below the threshold | pKd [19, 26]: below the threshold | pKd [20, 26]: 3.51 | pKd [21, 26]: 4.57 | pKd [22, 26]: 4.55 | pKd [23, 26]: below the threshold | pKd [24, 26]: 3.83 | pKd [25, 26]: below the threshold

PSRDRKETSI [RALBP1, Q15311]
pKd [1, 27]: below the threshold | pKd [2, 27]: 4.35 | pKd [3, 27]: 3.3 | pKd [4, 27]: 4.77 | pKd [5, 27]: 3.97 | pKd [6, 27]: below the threshold | pKd [7, 27]: below the threshold | pKd [8, 27]: below the threshold | pKd [9, 27]: 3.69 | pKd [10, 27]: 3.45 | pKd [11, 27]: below the threshold | pKd [12, 27]: 3.49 | pKd [13, 27]: below the threshold | pKd [14, 27]: below the threshold | pKd [15, 27]: below the threshold | pKd [16, 27]: below the threshold | pKd [17, 27]: below the threshold | pKd [18, 27]: below the threshold | pKd [19, 27]: below the threshold | pKd [20, 27]: 3.36 | pKd [21, 27]: 3.76 | pKd [22, 27]: 4.75 | pKd [23, 27]: 3.92 | pKd [24, 27]: 4.23 | pKd [25, 27]: below the threshold

SQDPKKPSRV [CBY2, Q8NA61]
pKd [1, 28]: 4.04 | pKd [2, 28]: below the threshold | pKd [3, 28]: below the threshold | pKd [4, 28]: below the threshold | pKd [5, 28]: 3.66 | pKd [6, 28]: below the threshold | pKd [7, 28]: below the threshold | pKd [8, 28]: below the threshold | pKd [9, 28]: below the threshold | pKd [10, 28]: below the threshold | pKd [11, 28]: below the threshold | pKd [12, 28]: below the threshold | pKd [13, 28]: below the threshold | pKd [14, 28]: below the threshold | pKd [15, 28]: below the threshold | pKd [16, 28]: below the threshold | pKd [17, 28]: below the threshold | pKd [18, 28]: below the threshold | pKd [19, 28]: below the threshold | pKd [20, 28]: below the threshold | pKd [21, 28]: below the threshold | pKd [22, 28]: below the threshold | pKd [23, 28]: below the threshold | pKd [24, 28]: 3.67 | pKd [25, 28]: below the threshold
